Assay results published in paper PMC12323374.

How the values were obtained:
Assay in all cases: SEC
[1] = target: Nsp3 Ubl1 variant E49R E52R (SARS-CoV-2)
[2] = target: Nsp3 Ubl1 variant D80R E81R (SARS-CoV-2)
[3] = target: Nsp3 Ubl1 variant E26R E29R (SARS-CoV-2)
[4] = target: Nsp3 Ubl1 variant K33E K38E (SARS-CoV-2)
[5] = target: SARS-CoV-2 Nsp3 ubiquitin-like 1 (Ubl1) domain, residues 1-111 (SARS-CoV-2)
[6] = target: SARS-CoV-2 Nsp3 NAB domain, longer fragment, residues 1,050-1,216 (SARS-CoV-2)

Substance: Nsp3 Ubl1 variant E49R E52R (domain or fragment)
- stoichiometry N [1]: 2

Substance: Nsp3 Ubl1 variant D80R E81R (domain or fragment)
- stoichiometry N [2]: 2

Substance: Nsp3 Ubl1 variant E26R E29R (domain or fragment)
- stoichiometry N [3]: 2

Substance: Nsp3 Ubl1 variant K33E K38E (domain or fragment)
- stoichiometry N [4]: 2

Substance: SARS-CoV-2 Nsp3 ubiquitin-like 1 (Ubl1) domain, residues 1-111 (domain or fragment)
- stoichiometry N [5]: 2

Substance: SARS-CoV-2 Nsp3 NAB domain, longer fragment, residues 1,050-1,216 (domain or fragment)
- stoichiometry N [6]: 2
